B1: Mitogen-activated protein kinase kinase kinase 2 (Homo sapiens), Q9Y2U5 (parent)
chain: MDDQQALNSIMQDLAVLHKASRPALSLQETRKAKSSSPKKQNDVRVKFEHRGEKRILQFPRPVKLEDLRSKAKIAFGQSMDLHYTNNELVIPLTTQDDLDKAVELLDRSIHMKSLKILLVINGSTQATNLEPLPSLEDLDNTVFGAERKKRLSIIGPTSRDRSSPPPGYIPDELHQVARNGSFTSINSEGEFIPESMDQMLDPLSLSSPENSGSGSCPSLDSPLDGESYPKSRMPRAQSYPDNHQEFSDYDNPIFEKFGKGGTYPRRYHVSYHHQEYNDGRKTFPRARRTQGTSLRSPVSFSPTDHSLSTSSGSSIFTPEYDDSRIRRRGSDIDNPTLTVMDISPPSRSPRAPTNWRLGKLLGQGAFGRVYLCYDVDTGRELAVKQVQFDPDSPETSKEVNALECEIQLLKNLLHERIVQYYGCLRDPQEKTLSIFMEYMPGGSIKDQLKAYGALTENVTRKYTRQILEGVHYLHSNMIVHRDIKGANILRDSTGNVKLGDFGASKRLQTICLSGTGMKSVTGTPYWMSPEVISGEGYGRKADIWSVACTVVEMLTEKPPWAEFEAMAAIFKIATQPTNPKLPPHVSDYTRDFLKRIFVEAKLRPSADELLRHMFVHYH

Variants of: B1
Settings: with chip_human STUB1, Q9UNE7
Chain of chip_human STUB1, Q9UNE7 (Q9UNE7 whole entry): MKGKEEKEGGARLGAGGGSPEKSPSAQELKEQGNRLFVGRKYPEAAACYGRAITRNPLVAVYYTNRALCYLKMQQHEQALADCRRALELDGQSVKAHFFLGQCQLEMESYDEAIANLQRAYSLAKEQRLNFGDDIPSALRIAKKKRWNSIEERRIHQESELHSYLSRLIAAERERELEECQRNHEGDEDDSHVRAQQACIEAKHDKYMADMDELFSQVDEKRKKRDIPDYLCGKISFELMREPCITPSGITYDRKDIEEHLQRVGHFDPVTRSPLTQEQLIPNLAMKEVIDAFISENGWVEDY

Question: Which “effect of a mutation on the interaction” value does the source give for K385M here?
Answer: disrupting interaction

Variants of: B1
Settings: with chip_human STUB1, Q9UNE7
Remark: another data set of the same source

Question: Which “effect of a mutation on the interaction” value does the source give for K385M here?
Answer: increasing interaction

Variants of: B1
Settings: with ubc_human UBC

Question: With K385M as the variant, how does the “effect of a mutation on the interaction” value read?
Answer: disrupting interaction

Source: IntAct's records for PubMed 20588253
